According to article PMC10912509:

Biological target: ITPKB (UniProt P27987)
Assay: co-immunoprecipitation, immunoblot
Settings: reference: wild-type Trim25; sites S100

Substance: Trim25 (from UniProt Q14258) Trim25 S100A
- binding against the reference: weaker
